Consider 21 molecules from patent US9695228B2, “EGFR and c-Met fibronectin type III domain binding molecules” (Janssen Biotech, Inc., priority 2012, dated 2017).

Like-named read-outs stand apart in the source and are kept apart here.

For data set [1], the system named is H292-HGF human lung cancer xenograft. It is filed as in vivo. The following applies: for Tumor Size at day 23: day 23 after tumor inoculation, doses as printed with treatment.
Protocol: The H292-HGF cells were maintained in vitro in RPMI1640 medium supplemented with fetal bovine serum (10% v/v), and L-glutamine (2 mM) at 37° C. in an atmosphere of 5% CO2 in air. The cells were routinely subcultured twice weekly by trypsin-EDTA treatment. The cells growing in an exponential growth phase were harvested and counted for tumor inoculation.
Each mouse was inoculated subcutaneously at the right flank region with H292-HGF tumor cells (2×10^6) in 0.1 ml of PBS with cultrex (1:1) for tumor development. The treatments were started when the mean tumor size reached 139 mm^3. […] The date of tumor cell inoculation was denoted as day 0.
Before commencement of treatment, all animals were weighed and the tumor volumes were measured. Since the tumor volume can affect the effectiveness of any given treatment, mice were assigned into groups using randomized block design based upon their tumor volumes. […] The randomized block design was used to assign experimental animals to groups. First, the experimental animals were divided into homogeneous blocks according to their initial tumor volume. Secondly, within each block, randomization of experimental animals to treatments was conducted.
At the time of routine monitoring, the animals were checked for any effects of tumor growth and treatments on normal behavior, such as mobility, visual estimation of food and water consumption, body weight gain/loss (body weights were measured twice weekly), eye/hair matting and any other abnormal effect.
The endpoint was whether tumor growth can be delayed or tumor bearing mice can be cured. Tumor size was measured twice weekly in two dimensions using a caliper, and the volume was expressed in mm^3 using the formula: V=0.5 a×b^2 where a and b are the long and short diameters of the tumor, respectively. The tumor size was then used for calculations of both T-C and T/C values. T-C was calculated with T as the time (in days) required for the mean tumor size of the treatment group to reach 1000 mm^3, and C was the time (in days) for the mean tumor size of the control group to reach the same size. The T/C value (in percent) was an indication of antitumor efficacy; T and C were the mean tumor volume of the treated and control groups, respectively, on a given day. Complete tumor regression (CR) is defined as tumors that are reduced to below the limit of palpation (62.5 mm^3). Partial tumor regression (PR) is defined as tumors that are reduced from initial tumor volume. A minimum duration of CR or PR in 3 or more successive tumor measurements is required for a CP or PR to be considered durable.
Animals for which the body weight loss exceeded 20%, or for which the mean tumor size of the group exceeds 2000 mm^3 were euthanized. The study was terminated after two weeks of observation after the final dose.
Statistical analyses of difference in tumor volume among the groups were evaluated using a one-way ANOVA followed by individual comparisons using Games-Howell (equal variance not assumed). All data were analyzed using SPSS 18.0. p<0.05 was considered to be statistically significant.
The target in data set [2] is T1, c-Met-Fc fusion protein (Homo sapiens, UniProt P08581).
T1 construct: recombinant EGFR and/or c-Met extracellular domain was further analyzed by surface Plasmon resonance
Nature of the data set: c-Met-Fc affinity by surface plasmon resonance (ProteOn). In kind it is binding. Conditions: for binding to c-Met (in words): SPR; for Kd / ka / kd: serine mutants of A3 in the context of ECB15, SPR. For orientation: SPR reads the build-up and loss of mass on a sensor chip optically.

Data set [3] is described as follows: Differential scanning calorimetry in PBS (thermal stability). In kind it is physicochemical. The following applies: DSC in PBS, c-Met-binding FN3 domains. For orientation: In DSC, transitions show as peaks or steps in heat flow.

For orientation: T/C means the result in the treated group divided by that in the control group, in per cent. Usually Kd stands for the concentration at which binding is half-saturated.

T1 sequence (P08581 25-932 limits assumed): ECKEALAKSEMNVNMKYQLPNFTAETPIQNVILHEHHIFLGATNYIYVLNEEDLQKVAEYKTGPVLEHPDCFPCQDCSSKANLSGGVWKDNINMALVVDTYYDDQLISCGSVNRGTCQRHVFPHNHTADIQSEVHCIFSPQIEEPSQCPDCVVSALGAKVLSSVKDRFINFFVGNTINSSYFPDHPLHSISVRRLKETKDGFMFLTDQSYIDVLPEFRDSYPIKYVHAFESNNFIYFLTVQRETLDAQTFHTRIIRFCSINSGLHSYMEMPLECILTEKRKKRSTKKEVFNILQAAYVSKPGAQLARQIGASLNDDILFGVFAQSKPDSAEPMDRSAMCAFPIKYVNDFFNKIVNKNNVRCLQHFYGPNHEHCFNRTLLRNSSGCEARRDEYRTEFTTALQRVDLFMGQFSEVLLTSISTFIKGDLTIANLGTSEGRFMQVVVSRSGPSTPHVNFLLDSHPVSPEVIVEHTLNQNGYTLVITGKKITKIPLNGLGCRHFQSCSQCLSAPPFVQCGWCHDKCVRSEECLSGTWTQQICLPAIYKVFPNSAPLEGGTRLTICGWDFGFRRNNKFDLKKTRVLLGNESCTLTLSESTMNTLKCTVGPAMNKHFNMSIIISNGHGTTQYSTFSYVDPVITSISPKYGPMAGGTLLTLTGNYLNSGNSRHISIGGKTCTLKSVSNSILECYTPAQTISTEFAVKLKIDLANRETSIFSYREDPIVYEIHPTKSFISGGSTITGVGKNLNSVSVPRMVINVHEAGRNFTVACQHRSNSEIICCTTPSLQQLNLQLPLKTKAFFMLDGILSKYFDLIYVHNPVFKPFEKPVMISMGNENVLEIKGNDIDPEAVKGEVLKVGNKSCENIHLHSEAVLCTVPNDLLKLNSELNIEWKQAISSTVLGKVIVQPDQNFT

With `C[C@@H](Oc1cc(-c2cnn(C3CCNCC3)c2)cnc1N)c1c(Cl)ccc(F)c1Cl` [Crizotinib, crizotinib, reference compound], the “T-C at 1000 mm^3 (tumor growth delay)” value in data set [1] (compared with the vehicle group) was -1 days. For the same molecule, the Tumor volume in data set [1] (day 7 (start of treatment), mean ± SEM, doses as in column head) is 140 ± 9 mm^3; in data set [1] (day 9, mean ± SEM), 217 ± 20 mm^3; in data set [1] (day 13, mean ± SEM), 547 ± 43 mm^3; in data set [1] (day 16, mean ± SEM), 914 ± 92 mm^3; in data set [1] (day 20, mean ± SEM) it was 1438 ± 239 mm^3; in data set [1] (day 23, mean ± SEM), 2102 ± 298 mm^3. This molecule also showed a T/C in data set [1] (day 23) of 120%. For the same molecule, the “Tumor Size at day 23” value in data set [1] is on record as 2102 ± 298 mm^3; in data set [1] (listed as crizotinib) it was 2,102 mm^3. Besides, the “antitumor activity (in words)” value in data set [1] (doses as in Table 14) is given as “no antitumor activity”. The “tolerability / body weight loss (in words)” value in data set [1] (doses as in Table 14) is recorded as “More severe body weight loss”.

Turning to `C#Cc1cccc(Nc2ncnc3cc(OCCOC)c(OCCOC)cc23)c1` [Erlotinib, erlotinib, reference compound], the “tolerability / body weight loss (in words)” value in data set [1] (doses as in Table 14) is listed as “More severe body weight loss”.

B1: A3 M72S: serine mutant of c-Met domain A3 in the context of ECB15, SEQ ID NO: 220 (protein)
chain: LPAPKNLVVSRVTEDSARLSWTAPDAAFDSFWIRYFEFLGSGEAIVLTVPGSERSYDLTGLKPGTEYVVNISGVKGGKISPPLSAIFTT
modifications: c-Met binding FN3 domain
Take B1: in data set [2], the “binding to c-Met (in words)” value is on record as “No binding was measurable” and the Kd was greater than 1 µM.

B2: A3 V68S: serine mutant of c-Met domain A3 in the context of ECB15, SEQ ID NO: 215 (protein)
chain: LPAPKNLVVSRVTEDSARLSWTAPDAAFDSFWIRYFEFLGSGEAIVLTVPGSERSYDLTGLKPGTEYSVNIMGVKGGKISPPLSAIFTT
modifications: c-Met binding FN3 domain
In data set [2], B2 gave a ka of 329000 M⁻¹ s⁻¹ and a kd of 0.0012 s⁻¹.

B3: P114AR7P95-D4: c-Met-binding FN3 domain, SEQ ID NO: 45 (protein)
chain: LPAPKNLVVSRVTEDSARLSWTAPDAAFDSFWIRYFEFLGSGEAIVLTVPGSERSYDLTGLKPGTEYVVQILGVKGGYISIPLSAIFTT
modifications: c-Met binding FN3 domain
For B3, in data set [3], the “Thermal Stability (Tm)” value was 85.3 C.

B4: A3 L39S: serine mutant of c-Met domain A3 in the context of ECB15, SEQ ID NO: 214 (protein)
chain: LPAPKNLVVSRVTEDSARLSWTAPDAAFDSFWIRYFEFSGSGEAIVLTVPGSERSYDLTGLKPGTEYVVNIMGVKGGKISPPLSAIFTT
modifications: c-Met binding FN3 domain
In data set [2], B4 gave a ka of 475000 M⁻¹ s⁻¹ and a kd of 0.00127 s⁻¹.

B5: A3 F36S: serine mutant of c-Met domain A3 in the context of ECB15, SEQ ID NO: 218 (protein)
chain: LPAPKNLVVSRVTEDSARLSWTAPDAAFDSFWIRYSEFLGSGEAIVLTVPGSERSYDLTGLKPGTEYVVNIMGVKGGKISPPLSAIFTT
modifications: c-Met binding FN3 domain
With B5, in data set [2], the ka was found to be 188000 M⁻¹ s⁻¹ and the kd worked out at 0.00512 s⁻¹.

B6: P114AR7P93-H9: c-Met-binding FN3 domain, SEQ ID NO: 40 (protein)
chain: LPAPKNLVVSRVTEDSARLSWTAPDAAFDSFWIRYFEFLGSGEAIVLTVPGSERSYDLTGLKPGTEYVVQIIGVKGGHISLPLSAIFTT
modifications: c-Met binding FN3 domain
For B6, the “Thermal Stability (Tm)” value in data set [3] is reported as 88.2 C.

B7: A3 K78S: serine mutant of c-Met domain A3 in the context of ECB15, SEQ ID NO: 212 (protein)
chain: LPAPKNLVVSRVTEDSARLSWTAPDAAFDSFWIRYFEFLGSGEAIVLTVPGSERSYDLTGLKPGTEYVVNIMGVKGGSISPPLSAIFTT
modifications: c-Met binding FN3 domain
Turning to B7, in data set [2], the ka came to 440000 M⁻¹ s⁻¹ and the kd came out at 0.00015 s⁻¹.

B8: P114AR7P94-A3: c-Met-binding FN3 domain, SEQ ID NO: 41 (protein)
chain: LPAPKNLVVSRVTEDSARLSWTAPDAAFDSFWIRYFEFLGSGEAIVLTVPGSERSYDLTGLKPGTEYVVNIMGVKGGKISPPLSAIFTT
modifications: c-Met binding FN3 domain
Regarding B8, the “Thermal Stability (Tm)” value in data set [3] is 86.2 C.

B9: A3 N70S: serine mutant of c-Met domain A3 in the context of ECB15, SEQ ID NO: 216 (protein)
chain: LPAPKNLVVSRVTEDSARLSWTAPDAAFDSFWIRYFEFLGSGEAIVLTVPGSERSYDLTGLKPGTEYVVSIMGVKGGKISPPLSAIFTT
modifications: c-Met binding FN3 domain
With B9, in data set [2], the ka was found to be 425000 M⁻¹ s⁻¹ and the kd was found to be 0.00249 s⁻¹.

B10: P114AR7P93-G8: c-Met-binding FN3 domain, SEQ ID NO: 39 (protein)
chain: LPAPKNLVVSRVTEDSARLSWTAPDAAFDSFWIRYFEFLGSGEAIVLTVPGSERSYDLTDLKPGTEYGVTINGVKGGRVSTPLSAIFTT
modifications: c-Met binding FN3 domain
With B10, in data set [3], the “Thermal Stability (Tm)” value was found to be 76.8 C.

B11: A3 R34S: serine mutant of c-Met domain A3 in the context of ECB15, SEQ ID NO: 221 (protein)
chain: LPAPKNLVVSRVTEDSARLSWTAPDAAFDSFWISYFEFLGSGEAIVLTVPGSERSYDLTGLKPGTEYVVNIMGVKGGKISPPLSAIFTT
modifications: c-Met binding FN3 domain
B11: in data set [2], the “binding to c-Met (in words)” value is listed as “No binding was measurable” and the Kd was greater than 1 µM.

B12: A3 F38S: serine mutant of c-Met domain A3 in the context of ECB15, SEQ ID NO: 222 (protein)
chain: LPAPKNLVVSRVTEDSARLSWTAPDAAFDSFWIRYFESLGSGEAIVLTVPGSERSYDLTGLKPGTEYVVNIMGVKGGKISPPLSAIFTT
modifications: c-Met binding FN3 domain
In data set [2], B12 gave a ka of 45100 M⁻¹ s⁻¹ and a kd of 0.0323 s⁻¹.

B13: P114AR7P94-E5: c-Met-binding FN3 domain, SEQ ID NO: 42 (protein)
chain: LPAPKNLVVSRVTEDSARLSWTAPDAAFDSFWIRYFEFLGSGEAIVLTVPGSERSYDLTGLKPGTEYAVNIMGVKGGRVSVPLSAIFTT
modifications: c-Met binding FN3 domain
For B13, in data set [3], the “Thermal Stability (Tm)” value turned out to be 80 C.

B14: A3 179S: serine mutant of c-Met domain A3 in the context of ECB15, SEQ ID NO: 223 (protein)
chain: LPAPKNLVVSRVTEDSARLSWTAPDAAFDSFWIRYFEFLGSGEAIVLTVPGSERSYDLTGLKPGTEYVVNIMGVKGGKSSPPLSAIFTT
modifications: c-Met binding FN3 domain
Regarding B14, in data set [2], the “binding to c-Met (in words)” value is “No binding was measurable” and the Kd is greater than 1 µM.

B15: A3 P81S: serine mutant of c-Met domain A3 in the context of ECB15, SEQ ID NO: 217 (protein)
chain: LPAPKNLVVSRVTEDSARLSWTAPDAAFDSFWIRYFEFLGSGEAIVLTVPGSERSYDLTGLKPGTEYVVNIMGVKGGKISSPLSAIFTT
modifications: c-Met binding FN3 domain
Consider B15, for which, in data set [2], the ka turned out to be 321000 M⁻¹ s⁻¹ and the kd was determined as 0.000536 s⁻¹.

B16: P114AR7P92-H5: c-Met-binding FN3 domain, SEQ ID NO: 37 (protein)
chain: LPAPKNLVVSRVTEDSARLSWTAPDAAFDSFWIRYLEFLLGGEAIVLTVPGSERSYDLTGLKPGTEYVVQIMGVKGGTVSPPLSAIFTT
modifications: c-Met binding FN3 domain
As to B16, in data set [3], the “Thermal Stability (Tm)” value is 87 C.

B17: A3 W32S: serine mutant of c-Met domain A3 in the context of ECB15, SEQ ID NO: 219 (protein)
chain: LPAPKNLVVSRVTEDSARLSWTAPDAAFDSFSIRYFEFLGSGEAIVLTVPGSERSYDLTGLKPGTEYVVNIMGVKGGKISPPLSAIFTT
modifications: c-Met binding FN3 domain
In data set [2], B17 yielded a ka of 289000 M⁻¹ s⁻¹ and a kd of 0.0086 s⁻¹.

B18: A3 G40S: serine mutant of c-Met domain A3 in the context of ECB15, SEQ ID NO: 213 (protein)
chain: LPAPKNLVVSRVTEDSARLSWTAPDAAFDSFWIRYFEFLSSGEAIVLTVPGSERSYDLTGLKPGTEYVVNIMGVKGGKISPPLSAIFTT
modifications: c-Met binding FN3 domain
As for B18, in data set [2], the ka worked out at 185000 M⁻¹ s⁻¹ and the kd worked out at 0.00032 s⁻¹.

B19: P114AR7P92-G8: c-Met-binding FN3 domain, SEQ ID NO: 36 (protein)
chain: LPAPKNLVVSRVTEDSARLSWTAPDAAFDSFVIRYFEFLGSGEAIVLTVPGSERSYDLTGLKPGTEYVVQILGVKGGYISIPLSAIFTT
modifications: c-Met binding FN3 domain
Turning to B19, the “Thermal Stability (Tm)” value in data set [3] is 90.9 C.
